Reference: patent publication US20220160760A1

Target: carcinoembryonic antigen (CEA) (UniProt P06731)
Assay: cell-based or functional assay

Chain of UniProt P06731 (P06731 35-702 limits assumed): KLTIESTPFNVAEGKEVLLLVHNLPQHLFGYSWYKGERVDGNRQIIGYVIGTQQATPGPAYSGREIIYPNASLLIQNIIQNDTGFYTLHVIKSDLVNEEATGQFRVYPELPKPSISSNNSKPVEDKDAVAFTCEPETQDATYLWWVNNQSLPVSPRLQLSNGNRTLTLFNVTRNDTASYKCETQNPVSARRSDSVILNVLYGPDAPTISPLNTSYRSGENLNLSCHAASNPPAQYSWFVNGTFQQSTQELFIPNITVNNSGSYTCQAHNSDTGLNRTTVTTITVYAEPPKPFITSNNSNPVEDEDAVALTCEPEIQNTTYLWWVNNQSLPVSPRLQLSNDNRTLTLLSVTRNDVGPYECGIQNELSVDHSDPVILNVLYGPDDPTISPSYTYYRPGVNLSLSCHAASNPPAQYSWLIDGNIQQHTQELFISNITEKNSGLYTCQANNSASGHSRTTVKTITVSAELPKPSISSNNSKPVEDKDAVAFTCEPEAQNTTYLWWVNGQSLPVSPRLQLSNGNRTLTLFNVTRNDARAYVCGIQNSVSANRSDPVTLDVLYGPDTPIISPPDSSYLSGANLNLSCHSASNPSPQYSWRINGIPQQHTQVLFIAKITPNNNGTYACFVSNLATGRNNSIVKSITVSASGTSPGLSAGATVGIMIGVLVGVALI

IL-2 secretion by ELISA, T-cells mixed with LoVo-OKT3 cells, average of three donors (non-transduced cells 0.80 ng/ml): 5 ng/mL
Substance: MFE23 CoStAR (MFE23.scFv fused to full length human CD28) (receptor)
